According to patent US20190336574A1 (TRUSTEES OF PRINCETON UNIVERSITY, published 2019):
Where a chain is given by its changes, count along the chain named.

How the values were obtained:
[1] = molecular target: T1, murine SND1, wild type (mouse, UniProt Q78PY7 1-910); test: anti-MTDH co-IP from PyMT;Mtdh-/- tumor cells reconstituted with murine MTDH, western blot
T1 construct: Endogenous protein of murine PyMT mammary tumor cells; also called SND1 (in PyMT tumor cells); WT shRNA-resistant murine SND1
T1 sequence (looked up): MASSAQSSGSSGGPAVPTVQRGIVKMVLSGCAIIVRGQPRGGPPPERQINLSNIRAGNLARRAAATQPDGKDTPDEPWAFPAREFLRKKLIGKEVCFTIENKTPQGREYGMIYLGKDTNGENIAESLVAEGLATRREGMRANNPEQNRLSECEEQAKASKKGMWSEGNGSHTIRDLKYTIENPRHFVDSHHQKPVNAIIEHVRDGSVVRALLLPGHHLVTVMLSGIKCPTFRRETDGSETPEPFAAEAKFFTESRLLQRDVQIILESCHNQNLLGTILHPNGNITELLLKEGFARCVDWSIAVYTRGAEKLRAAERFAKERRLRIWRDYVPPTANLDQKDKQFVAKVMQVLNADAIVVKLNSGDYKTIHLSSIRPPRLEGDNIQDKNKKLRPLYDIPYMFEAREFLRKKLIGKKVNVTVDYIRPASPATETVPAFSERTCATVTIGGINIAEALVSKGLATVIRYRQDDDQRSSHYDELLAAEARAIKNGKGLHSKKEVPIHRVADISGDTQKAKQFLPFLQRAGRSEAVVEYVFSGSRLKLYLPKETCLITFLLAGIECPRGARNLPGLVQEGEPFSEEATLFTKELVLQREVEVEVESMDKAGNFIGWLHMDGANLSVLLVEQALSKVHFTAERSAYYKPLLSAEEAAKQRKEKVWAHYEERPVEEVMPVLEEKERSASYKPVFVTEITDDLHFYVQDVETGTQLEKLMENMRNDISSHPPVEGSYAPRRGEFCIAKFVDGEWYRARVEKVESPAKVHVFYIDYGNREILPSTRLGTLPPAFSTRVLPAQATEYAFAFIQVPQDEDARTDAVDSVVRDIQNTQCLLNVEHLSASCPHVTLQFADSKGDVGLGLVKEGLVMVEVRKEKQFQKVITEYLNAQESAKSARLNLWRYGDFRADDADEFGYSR
Description: (FIG. 23A) Lysates from PyMT;Mtdh−/− tumor cells reconstituted with vector control, WT or mutant murine MTDH were immunoprecipitated with anti-MTDH antibody and immunoblotted for indicated proteins. Note all amino acid annotations are based on human MTDH. W394 and W401 of human MTDH correspond to W391 and W398 in murine MTDH, respectively. (FIG. 23B) Mammosphere assays were performed with PyMT;Mtdh−/− tumor cells reconstituted with indicated MTDH constructs. (FIG. 23C-E) In vivo tumor formation (FIG. 23C for tumor incidence; FIG. 23D, FIG. 23E for tumor volumes) were performed at limiting numbers using PyMT;Mtdh−/− tumor cells reconstituted with indicated WT or mutant MTDH. Statistics: (FIG. 23B) Student's t-test. Data represent mean±SEM. (FIG. 23C) Limiting dilution analysis. (FIG. 23D, FIG. 23E) Mann-Whitney test. **p<0.01, *p<0.05.
Immunoprecipitation and western blot: For in vivo immunoprecipitation (IP) experiments, cultured cells were washed in cold PBS and lysed in lysis buffer (20 mM Tris pH 7.4, 0.15 M NaCl, 1 mM EDTA, 1 mM EGTA, 1% Tx-100, 0.0025 M Na2P2O7, 1 mM β-glycerolphosphate, 1 mM Na3VO4, and 1 mM NaF) with an EDTA-free protease inhibitor mixture (Roche Applied Science) and PMSF. Cell lysates were then incubated on ice for 10 min, centrifuged, and precleared by incubating with protein A/G beads (Santa Cruz Biotechnology) for 1 h at 4° C. […]

[2] = molecular target: T2, murine SND1 F250A (shRNA-resistant construct) (mouse, UniProt Q78PY7 1-910); test: co-IP (anti-MTDH) from SND1-KD PyMT;Mtdh+/+ tumor cells reconstituted with SND1 constructs, western blot
T2 sequence (looked up): T1 sequence (looked up) with F250A

[3] = molecular target: T3, murine SND1 R255E (shRNA-resistant construct) (mouse, UniProt Q78PY7 1-910); test: as above
T3 sequence (looked up): T1 sequence (looked up) with R255E

B1: murine MTDH, wild type (other, mouse, UniProt Q80WJ7 1-579, looked up)
chain: MAARSWQDELAQQAEEGSARLRELLSVGLGFLRTELGLDLGLEPKRYPGWVILVGTGALGLLLLFLLGYGWAAACAGARKKRRSPPRKREEAAPPTPAPDDLAQLKNLRSEEQKKKNRKKLPEKPKPNGRTVEVPEDEVVRNPRSITAKQAPETDKKNEKSKKNKKKSKSDAKAVQNSSRHDGKEVDEGAWETKISHREKRQQRKRDKVLTDSGSLDSTIPGIENIITVTTEQLTTASFPVGSKKNKGDSHLNVQVSNFKSGKGDSTLQVSSRLNENLTVNGGGWSEKSVKLSSQLSEEKWNSVPPASAGKRKTEPSAWTQDTGDTNANGKDWGRNWSDRSIFSGIGSTAEPVSQSTTSDYQWDVSRNQPYIDDEWSGLNGLSSADPSSDWNAPAEEWGNWVDEDRASLLKSQEPISNDQKVSDDDKEKGEGALPTGKSKKKKKKKKKQGEDNSHTQDTEDLEKDTREELPVNTSKARPKQEKACSLKTMSTSDPAEVLIKNSQPVKTLPPAISAEPSITLSKGDSDNSSSQVPPMLQDTDKPKSNAKQNSVPPSQTKSETNWESPKQIKKKKKARRET
notes: Re-expressed by lentivirus in PyMT;Mtdh-/- tumor cells; also used for the endogenous protein of PyMT;Mtdh+/+ cells (same protein); also called mouse MTDH; WT MTDH (murine form)
B1: binds [1]; no binding [2]; no binding [3].
